From US9255132B2, “Angiopoietin derived peptides” (Compugen Ltd., priority 2008, dated 2016)
Entries after “also recorded” stand apart in the source; their conditions may differ. Residues, ends and D or L forms follow the SMILES beside them.

Assays:
Conditions in all cases: CM5 chip, 10-50 μM peptide
recombinant human Ang1 = molecular target: T1, recombinant human Ang1 (Homo sapiens, UniProt Q15389); assay: BIACORE (SPR) binding of peptides to immobilized recombinant Ang1
T1 construct: purchased R&D Systems 923-AN-025/CF
T1 sequence (Q15389 16-498): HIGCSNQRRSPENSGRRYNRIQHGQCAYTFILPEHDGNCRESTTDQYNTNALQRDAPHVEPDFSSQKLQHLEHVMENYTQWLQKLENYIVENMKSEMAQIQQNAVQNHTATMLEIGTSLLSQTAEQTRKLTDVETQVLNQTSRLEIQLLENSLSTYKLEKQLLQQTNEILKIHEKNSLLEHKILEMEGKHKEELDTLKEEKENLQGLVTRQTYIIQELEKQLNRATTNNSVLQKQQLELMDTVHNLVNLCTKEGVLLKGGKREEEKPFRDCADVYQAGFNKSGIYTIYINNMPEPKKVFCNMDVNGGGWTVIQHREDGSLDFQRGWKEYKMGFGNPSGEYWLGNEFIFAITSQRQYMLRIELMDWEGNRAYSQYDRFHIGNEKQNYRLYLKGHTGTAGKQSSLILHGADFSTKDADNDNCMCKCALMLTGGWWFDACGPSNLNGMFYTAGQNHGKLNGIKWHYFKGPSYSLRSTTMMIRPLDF
Source text: (§1) The capability of CGEN-H2 [SEQ ID NO: 1], CGEN-H3 [SEQ ID NO: 2], CGEN-A8 [SEQ ID NO: 3], CGEN-H7 [SEQ ID NO: 4], CGEN-G4 [SEQ ID NO: 5], CGEN-G6 [SEQ ID NO: 6], CGEN-F9 [SEQ ID NO: 7], CGEN-F12 [SEQ ID NO: 8], CGEN-C6-30 [SEQ ID NO: 9], CGEN-All [SEQ ID NO: 10], and CGEN-G2 [SEQ ID NO: 11] to specifically bind to recombinant Ang1, Ang2, and Ang4 was investigated using the BIACORE technology, measuring protein-protein interaction and binding affinity (Wendler et al 2005, Anal Bioanal Chem, 381: 1056-1064). The technology is based on surface plasmon resonance (SPR), an optical phenomenon that enables detection of unlabeled interactants in real time. The SPR-based biosensors can be used in determination of active concentration, screening and characterization in terms of both affinity and kinetics.
(§2) Peptide-protein binding was analyzed using surface plasmon resonance. Analysis of the to interaction between CGEN-H2 [SEQ ID NO: 1], CGEN-H3 [SEQ ID NO: 2], CGEN-A8 [SEQ ID NO: 3], CGEN-H7 [SEQ ID NO: 4], CGEN-G4 [SEQ ID NO: 5], CGEN-G6 [SEQ ID NO: 6], CGEN-F9 [SEQ ID NO: 7], CGEN-F12 [SEQ ID NO: 8], CGEN-C6 [SEQ ID NO: 9], CGEN-A11 [SEQ ID NO: 10], and CGEN-G2 [SEQ ID NO: 11] peptides and recombinant human Ang1 carrier-free (R&D Systems, Cat#923-AN-025/CF, Lot#FHW1507031), human Ang2 carrier-free (R&D Systems, Cat#623-AN-025/CF, Lot#BNO0457121), and human Ang4 carrier-free (R&D Systems, Cat#964-AN-025/CF, Lot#ELM025121) was conducted using the BIAcore biosensor (Pharmacia Biosensor, Uppsala, Sweden). The recombinant Ang1, Ang2, and Ang4 were immobilized directly to a CM5 sensor chip. Solutions containing 10-50 μM of CGEN-H2 [SEQ ID NO: 1], CGEN-H3 [SEQ ID NO: 2], CGEN-A8 [SEQ ID NO: 3], CGEN-H7 [SEQ ID NO: 4], CGEN-G4 [SEQ ID NO: 5], CGEN-G6 [SEQ ID NO: 6], CGEN-F9 [SEQ ID NO: 7], CGEN-F12 [SEQ ID NO: 8], CGEN-C6 [SEQ ID NO: 9], CGEN-A11 [SEQ ID NO: 10], and CGEN-G2 [SEQ ID NO: 11] peptides were injected into the sample chamber of the BIACORE device at a rate of […] and the interaction was monitored using surface plasmon resonance.
(§3) Solutions containing different concentrations of CGEN-G6 [SEQ ID NO: 6], CGEN-F9 [SEQ ID NO: 7], CGEN-F12 [SEQ ID NO: 8], CGEN-A11 [SEQ ID NO: 10], and CGEN-G2 [SEQ ID NO: 11] peptides (as indicated in Table 2) were injected into the sample chamber of the BIACORE device at a rate of […] and the interaction was monitored using surface plasmon resonance. As a background, the solutions were also injected onto an empty flow cell with no immobilized ligand and the in binding levels achieved were subtracted. Data was analyzed using BIAevaluation software. The affinity constant of the interaction between CGEN-G6 [SEQ ID NO: 6], CGEN-F9 [SEQ ID NO: 7], CGEN-F12 [SEQ ID NO: 8], CGEN-C6 [SEQ ID NO: 9], CGEN-A11 [SEQ ID NO: 10], and CGEN-G2 [SEQ ID NO: 11] and Ang1, Ang2, or Ang4 was determined by direct kinetic analysis. The 1:1 Langmuir binding model was used to fit kinetic data.
(§4) Table 2 summarizes results of analysis of CGEN-G6 [SEQ ID NO: 6], CGEN-F9 [SEQ ID NO: 7], CGEN-F12 [SEQ ID NO: 8], CGEN-A11 [SEQ ID NO: 10], and CGEN-G2 [SEQ ID NO: 11] interaction with Ang1, Ang2, or Ang4. Kinetic measurements were done at the indicated concentration range, and they are presented as KD (M). CGEN-F12 [SEQ ID NO: 8] bound to Ang1 and Ang4 with high affinity. The specificity of this binding is not clear.

human Ang4 = molecular target: T2, human Ang4 (Homo sapiens, UniProt Q9Y264); assay: BIACORE (SPR) binding of peptides to immobilized recombinant Ang4
T2 construct: purchased R&D Systems 964-AN-025/CF
T2 sequence (Q9Y264 25-503): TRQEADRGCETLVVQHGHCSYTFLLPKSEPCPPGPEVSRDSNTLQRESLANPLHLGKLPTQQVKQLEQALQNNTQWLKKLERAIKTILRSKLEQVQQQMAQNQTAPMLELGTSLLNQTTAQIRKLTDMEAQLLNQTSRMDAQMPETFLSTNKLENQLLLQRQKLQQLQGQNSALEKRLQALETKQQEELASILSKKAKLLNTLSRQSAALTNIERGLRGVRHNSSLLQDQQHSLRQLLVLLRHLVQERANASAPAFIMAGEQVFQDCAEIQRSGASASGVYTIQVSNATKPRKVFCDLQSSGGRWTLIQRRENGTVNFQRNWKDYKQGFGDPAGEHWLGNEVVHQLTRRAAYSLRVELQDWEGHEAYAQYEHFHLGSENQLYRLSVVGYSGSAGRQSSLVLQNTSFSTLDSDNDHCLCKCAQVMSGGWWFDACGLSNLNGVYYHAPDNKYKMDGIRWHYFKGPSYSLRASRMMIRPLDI
Source text: as §1, §2, §3, §4

human Ang2 = molecular target: T3, human Ang2 (Homo sapiens, UniProt O15123); assay: BIACORE (SPR) binding of peptides to immobilized recombinant Ang2
T3 construct: purchased R&D Systems 623-AN-025/CF
T3 sequence (O15123 19-496): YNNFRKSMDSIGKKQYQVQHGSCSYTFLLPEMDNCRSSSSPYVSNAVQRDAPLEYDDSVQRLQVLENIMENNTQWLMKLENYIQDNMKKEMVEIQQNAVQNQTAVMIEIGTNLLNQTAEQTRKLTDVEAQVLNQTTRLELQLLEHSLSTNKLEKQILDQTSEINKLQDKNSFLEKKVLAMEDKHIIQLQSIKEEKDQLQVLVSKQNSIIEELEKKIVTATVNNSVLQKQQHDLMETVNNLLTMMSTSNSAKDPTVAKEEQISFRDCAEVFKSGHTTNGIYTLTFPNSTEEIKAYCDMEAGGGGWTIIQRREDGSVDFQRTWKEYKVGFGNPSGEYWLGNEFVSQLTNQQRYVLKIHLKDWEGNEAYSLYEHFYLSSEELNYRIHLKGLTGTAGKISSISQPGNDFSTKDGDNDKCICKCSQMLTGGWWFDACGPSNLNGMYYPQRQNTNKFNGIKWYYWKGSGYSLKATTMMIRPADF
Source text: as §1, §2, §3, §4

Compound	binding to immobilized Ang1 (in words) (recombinant human Ang1)	binding to immobilized Ang4 (in words) (human Ang4)	binding to immobilized Ang2 (in words) (human Ang2)
CC[C@H](C)[C@H](NC(=O)[C@H](CO)NC(=O)[C@H](C)NC(=O)[C@H](CC(C)C)NC(=O)[C@H](CCC(=O)O)NC(=O)[C@H](CCC(=O)O)NC(=O)[C@H](CCC(N)=O)NC(C)=O)C(=O)N[C@@H](CC(C)C)C(=O)N[C@@H](CO)C(=O)N[C@@H](CCCCN)C(=O)N[C@@H](CCCCN)C(=O)N[C@@H](C)C(=O)N[C@@H](CCCCN)C(=O)N[C@@H](CC(C)C)C(=O)N[C@@H](CC(C)C)C(=O)N[C@@H](CC(N)=O)C(=O)N[C@H](C(=O)N[C@@H](CC(C)C)C(=O)N[C@@H](CO)C(=O)N[C@@H](CCCNC(=N)N)C(=O)N[C@@H](CCC(N)=O)C(=O)N[C@@H](CO)C(=O)N[C@@H](C)C(=O)N[C@@H](C)C(=O)N[C@@H](CC(C)C)C(=O)N[C@H](C(=O)N[C@@H](CC(N)=O)C(=O)N[C@H](C(=O)N[C@@H](CCC(=O)O)C(=O)N[C@@H](CCCNC(=N)N)C(=O)NCC(=O)N[C@@H](CC(C)C)C(=O)N[C@@H](CCCNC(=N)N)C(=O)NCC(=O)N[C@H](C(=O)N[C@@H](CCCNC(=N)N)C(N)=O)C(C)C)[C@@H](C)CC)[C@@H](C)O)[C@@H](C)O [CGEN-F9] (Ac-QEELASILSKKAKLLNTLSRQSAALTNIERGLRGVR-NH2)	capable of binding	capable of binding	capable of binding
LKEEKENLQGLVTRQTYIIQELEKQLNRAT (Ac-LKEEKENLQGLVTRQTYIIQELEKQLNRAT-NH2) [CGEN-H2, amino acid residues 212-241 of angiopoietin 1]	none or low binding	none or low binding	none or low binding
CC(=O)N[C@@H](CCC(N)=O)C(=O)N[C@@H](Cc1c[nH]cn1)C(=O)N[C@@H](CO)C(=O)N[C@@H](CC(C)C)C(=O)N[C@@H](CCCNC(=N)N)C(=O)N[C@@H](CCC(N)=O)C(=O)N[C@@H](CC(C)C)C(=O)N[C@@H](CC(C)C)C(=O)N[C@H](C(=O)N[C@@H](CC(C)C)C(=O)N[C@@H](CC(C)C)C(=O)N[C@@H](CCCNC(=N)N)C(=O)N[C@@H](Cc1c[nH]cn1)C(=O)N[C@@H](CC(C)C)C(=O)N[C@H](C(=O)N[C@@H](CCC(N)=O)C(=O)N[C@@H](CCC(=O)O)C(=O)N[C@@H](CCCNC(=N)N)C(=O)N[C@@H](C)C(=O)N[C@@H](CC(N)=O)C(=O)N[C@@H](C)C(=O)N[C@@H](CO)C(=O)N[C@@H](C)C(N)=O)C(C)C)C(C)C [CGEN-F12] (Ac-QHSLRQLLVLLRHLVQERANASA-NH2)	capable of binding; also recorded: high affinity	capable of binding; also recorded: high affinity	capable of binding
TDMEAQLLNQTSRMDAQM (Ac-TDMEAQLLNQTSRMDAQM-NH2) [CGEN-C6, amino acid residues 150-167 of angiopoietin 4]	did not bind	did not bind	not sufficiently strong
TNNSVLQKQQL (Ac-TNNSVLQKQQL-NH2) [CGEN-H3, amino acid residues 242-252 of angiopoietin 1]	none or low binding	none or low binding	none or low binding
LMDTVHNLVNL (Ac-LMDTVHNLVNL-NH2) [CGEN-A8, amino acid residues 254-264 of angiopoietin 1]	none or low binding	none or low binding	none or low binding
QLQVLVSKQNSIIEEL (Ac-QLQVLVSKQNSIIEEL-NH2) [CGEN-G4, amino acid residues 215-230 of angiopoietin 2]	none or low binding	none or low binding	none or low binding
NEILKIHEKNSLLEHKILEMEGKHK (Ac-NEILKIHEKNSLLEHKILEMEGKHK-NH2) [CGEN-H7, amino acid residues 182-206 of angiopoietin 1]	none or low binding	none or low binding	none or low binding
